Data published in IntAct's records for PubMed 25910212.

B1: Beta-crystallin B1 (Homo sapiens), P53674 (parent)
chain: MSQAAKASASATVAVNPGPDTKGKGAPPAGTSPSPGTTLAPTTVPITSAKAAELPPGNYRLVVFELENFQGRRAEFSGECSNLADRGFDRVRSIIVSAGPWVAFEQSNFRGEMFILEKGEYPRWNTWSSSYRSDRLMSFRPIKMDAQEHKISLFEGANFKGNTIEIQGDDAPSLWVYGFSDRVGSVKVSSGTWVGYQYPGYRGYQYLLEPGDFRHWNEWGAFQPQMQSLRRLRDKQWHLEGSFPVLATEPPK
partner: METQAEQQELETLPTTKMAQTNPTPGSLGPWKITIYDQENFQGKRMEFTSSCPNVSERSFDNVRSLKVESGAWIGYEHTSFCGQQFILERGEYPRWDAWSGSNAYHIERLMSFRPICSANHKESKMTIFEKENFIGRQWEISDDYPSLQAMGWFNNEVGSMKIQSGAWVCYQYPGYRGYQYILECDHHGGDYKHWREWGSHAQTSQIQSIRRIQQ
B2: ATP synthase mitochondrial F1 complex assembly factor 2 (Homo sapiens), Q8N5M1 (parent)
chain: MWRSCLRLRDGGRRLLNRPAGGPSASMSPGPTIPSPARAYAPPTERKRFYQNVSITQGEGGFEINLDHRKLKTPQAKLFTVPSEALAIAVATEWDSQQDTIKYYTMHLTTLCNTSLDNPTQRNKDQLIRAAVKFLDTDTICYRVEEPETLVELQRNEWDPIIEWAEKRYGVEISSSTSIMGPSIPAKTREVLVSHLASYNTWALQGIEFVAAQLKSMVLTLGLIDLRLTVEQAVLLSRLEEEYQIQKWGNIEWAHDYELQELRARTAAGTLFIHLCSESTTVKHKLLKE
partner: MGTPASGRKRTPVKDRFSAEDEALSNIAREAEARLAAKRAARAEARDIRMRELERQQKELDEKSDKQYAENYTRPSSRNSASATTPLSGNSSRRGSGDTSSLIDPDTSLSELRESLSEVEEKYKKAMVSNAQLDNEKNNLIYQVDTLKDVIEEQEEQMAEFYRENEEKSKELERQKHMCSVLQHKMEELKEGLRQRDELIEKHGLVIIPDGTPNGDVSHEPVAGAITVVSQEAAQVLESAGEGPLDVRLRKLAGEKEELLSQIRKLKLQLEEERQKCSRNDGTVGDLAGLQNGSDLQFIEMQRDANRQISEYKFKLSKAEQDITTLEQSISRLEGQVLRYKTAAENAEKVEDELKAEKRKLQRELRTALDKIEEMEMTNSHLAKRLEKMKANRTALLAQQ
B3: ATP synthase mitochondrial F1 complex assembly factor 2 (Homo sapiens), Q8N5M1 (parent)
chain: B2 chain
partner: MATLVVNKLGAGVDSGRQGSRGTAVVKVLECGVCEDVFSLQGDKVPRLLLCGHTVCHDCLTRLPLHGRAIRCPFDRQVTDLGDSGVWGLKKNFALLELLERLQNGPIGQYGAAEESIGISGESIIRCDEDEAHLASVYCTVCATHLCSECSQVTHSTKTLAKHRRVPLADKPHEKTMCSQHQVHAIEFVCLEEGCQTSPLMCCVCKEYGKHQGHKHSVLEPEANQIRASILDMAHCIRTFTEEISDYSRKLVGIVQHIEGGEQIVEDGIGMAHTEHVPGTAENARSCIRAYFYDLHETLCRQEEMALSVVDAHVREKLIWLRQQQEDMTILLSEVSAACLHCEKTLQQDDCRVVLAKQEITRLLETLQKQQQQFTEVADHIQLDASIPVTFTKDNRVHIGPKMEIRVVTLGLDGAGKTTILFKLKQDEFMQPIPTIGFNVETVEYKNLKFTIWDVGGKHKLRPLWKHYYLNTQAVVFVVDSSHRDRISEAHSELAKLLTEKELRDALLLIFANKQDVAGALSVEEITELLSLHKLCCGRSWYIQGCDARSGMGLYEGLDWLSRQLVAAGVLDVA
B4: Mothers against decapentaplegic homolog 3 (Homo sapiens), P84022 (parent)
chain: MSSILPFTPPIVKRLLGWKKGEQNGQEEKWCEKAVKSLVKKLKKTGQLDELEKAITTQNVNTKCITIPRSLDGRLQVSHRKGLPHVIYCRLWRWPDLHSHHELRAMELCEFAFNMKKDEVCVNPYHYQRVETPVLPPVLVPRHTEIPAEFPPLDDYSHSIPENTNFPAGIEPQSNIPETPPPGYLSEDGETSDHQMNHSMDAGSPNLSPNPMSPAHNNLDLQPVTYCEPAFWCSISYYELNQRVGETFHASQPSMTVDGFTDPSNSERFCLGLLSNVNRNAAVELTRRHIGRGVRLYYIGGEVFAECLSDSAIFVQSPNCNQRYGWHPATVCKIPPGCNLKIFNNQEFAALLAQSVNQGFEAVYQLTRMCTIRMSFVKGWGAEYRRQTVTSTPCWIELHLNGPLQWLDKVLTQMGSPSIRCSSVS
partner: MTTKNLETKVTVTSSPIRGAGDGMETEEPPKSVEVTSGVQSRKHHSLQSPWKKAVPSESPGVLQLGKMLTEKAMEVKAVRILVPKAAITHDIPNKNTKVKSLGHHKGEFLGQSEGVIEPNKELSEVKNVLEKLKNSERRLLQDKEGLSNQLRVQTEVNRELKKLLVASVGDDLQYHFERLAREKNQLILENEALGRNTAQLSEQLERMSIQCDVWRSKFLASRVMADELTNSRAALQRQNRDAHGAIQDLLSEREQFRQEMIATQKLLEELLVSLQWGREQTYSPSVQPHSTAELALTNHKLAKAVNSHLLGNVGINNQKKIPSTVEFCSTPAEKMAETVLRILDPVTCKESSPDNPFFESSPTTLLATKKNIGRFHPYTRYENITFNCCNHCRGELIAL
B5: U4/U6 small nuclear ribonucleoprotein Prp31 (Homo sapiens), Q8WWY3 (parent)
chain: MSLADELLADLEEAAEEEEGGSYGEEEEEPAIEDVQEETQLDLSGDSVKTIAKLWDSKMFAEIMMKIEEYISKQAKASEVMGPVEAAPEYRVIVDANNLTVEIENELNIIHKFIRDKYSKRFPELESLVPNALDYIRTVKELGNSLDKCKNNENLQQILTNATIMVVSVTASTTQGQQLSEEELERLEEACDMALELNASKHRIYEYVESRMSFIAPNLSIIIGASTAAKIMGVAGGLTNLSKMPACNIMLLGAQRKTLSGFSSTSVLPHTGYIYHSDIVQSLPPDLRRKAARLVAAKCTLAARVDSFHESTEGKVGYELKDEIERKFDKWQEPPPVKQVKPLPAPLDGQRKKRGGRRYRKMKERLGLTEIRKQANRMSFGEIEEDAYQEDLGFSLGHLGKSGSGRVRQTQVNEATKARISKTLQRTLQKQSVVYGGKSTIRDRSSGTASSVAFTPLQGLEIVNPQAAEKKVAEANQKYFSSMAEFLKVKGEKSGLMST
partner: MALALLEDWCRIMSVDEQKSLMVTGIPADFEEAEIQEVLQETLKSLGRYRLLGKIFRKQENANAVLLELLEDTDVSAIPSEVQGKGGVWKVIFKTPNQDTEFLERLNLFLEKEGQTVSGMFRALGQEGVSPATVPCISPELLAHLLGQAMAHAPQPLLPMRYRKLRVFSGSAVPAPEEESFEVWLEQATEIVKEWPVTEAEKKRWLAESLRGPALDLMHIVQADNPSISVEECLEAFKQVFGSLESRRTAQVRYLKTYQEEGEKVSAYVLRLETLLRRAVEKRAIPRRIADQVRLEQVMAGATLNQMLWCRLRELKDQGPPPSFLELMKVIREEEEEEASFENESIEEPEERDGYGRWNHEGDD
B6: U4/U6 small nuclear ribonucleoprotein Prp31 (Homo sapiens), Q8WWY3 (parent)
chain: B5 chain
partner: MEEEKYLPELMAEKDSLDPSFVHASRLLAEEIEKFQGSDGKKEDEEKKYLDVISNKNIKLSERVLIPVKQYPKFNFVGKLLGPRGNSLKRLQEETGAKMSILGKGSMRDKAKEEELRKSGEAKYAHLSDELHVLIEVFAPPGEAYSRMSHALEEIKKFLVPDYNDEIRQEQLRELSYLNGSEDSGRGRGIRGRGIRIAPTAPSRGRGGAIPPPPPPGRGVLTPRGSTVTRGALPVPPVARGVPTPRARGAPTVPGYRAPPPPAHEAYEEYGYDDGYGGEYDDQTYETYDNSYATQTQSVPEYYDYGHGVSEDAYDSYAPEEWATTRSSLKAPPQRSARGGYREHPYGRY
B7: Beta-crystallin A4 (Homo sapiens), P53673 (parent)
chain: MTLQCTKSAGPWKMVVWDEDGFQGRRHEFTAECPSVLELGFETVRSLKVLSGAWVGFEHAGFQGQQYILERGEYPSWDAWGGNTAYPAERLTSFRPAACANHRDSRLTIFEQENFLGKKGELSDDYPSLQAMGWEGNEVGSFHVHSGAWVCSQFPGYRGFQYVLECDHHSGDYKHFREWGSHAPTFQVQSIRRIQQ
partner: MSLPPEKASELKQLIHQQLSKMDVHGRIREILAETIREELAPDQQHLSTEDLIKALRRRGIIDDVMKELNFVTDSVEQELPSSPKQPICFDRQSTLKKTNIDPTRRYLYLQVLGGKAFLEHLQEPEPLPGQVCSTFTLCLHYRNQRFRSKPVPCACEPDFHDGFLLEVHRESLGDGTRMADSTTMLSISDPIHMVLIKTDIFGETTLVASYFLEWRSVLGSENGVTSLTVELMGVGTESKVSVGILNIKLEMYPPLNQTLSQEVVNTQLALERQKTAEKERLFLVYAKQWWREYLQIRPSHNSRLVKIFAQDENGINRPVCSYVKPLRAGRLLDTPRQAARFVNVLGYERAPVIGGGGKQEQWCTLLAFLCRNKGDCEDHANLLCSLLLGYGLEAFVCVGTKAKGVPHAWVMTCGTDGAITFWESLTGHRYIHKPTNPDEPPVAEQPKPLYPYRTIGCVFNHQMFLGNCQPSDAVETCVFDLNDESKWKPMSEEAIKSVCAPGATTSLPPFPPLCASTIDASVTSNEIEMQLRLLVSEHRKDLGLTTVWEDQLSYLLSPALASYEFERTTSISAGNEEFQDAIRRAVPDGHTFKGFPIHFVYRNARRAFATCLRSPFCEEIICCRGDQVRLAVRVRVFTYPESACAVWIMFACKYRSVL

Variants of: B1
Details: with crba1_human CRYBA1, P05813

effect of a mutation on the interaction	Variant
disrupting interaction strength	S228P

Variants of: B2
Details: with LRRFIP2, Q9Y608-2

effect of a mutation on the interaction	Variant
disrupting interaction strength	W94R

Variants of: B3
Details: with tri23_human TRIM23, P36406

effect of a mutation on the interaction	Variant
disrupting interaction strength	W94R

Variants of: B4
Details: with go45_human BLZF1, Q9H2G9

effect of a mutation on the interaction	Variant
with no effect	N197I
with no effect	I170V

Variants of: B5
Details: with pnma2_human PNMA2, Q9UL42

effect of a mutation on the interaction	Variant
with no effect	L107V

Variants of: B6
Details: with khdr2_human KHDRBS2, Q5VWX1

effect of a mutation on the interaction	Variant
with no effect	L107V

Variants of: B7
Details: with cep76_human CEP76, Q8TAP6

effect of a mutation on the interaction	Variant
disrupting interaction strength	L69P
disrupting interaction strength	F94S
disrupting interaction strength	V36M
